Assay [1] concerns the target ShhN^1-198-HA (mouse) (UniProt Q62226). The assay is described as follows: anti-HA immunoprecipitation from HEK293T lysate, label-free quantitative mass spectrometry; ratio of the ShhN-HA group to the IGF2-HA group.
Another assay addresses IGF2-HA (human) (UniProt P01344). In words: anti-HA immunoprecipitation from HEK293T lysate, label-free quantitative mass spectrometry; 2 unique peptides; untransfected Control Group printed 247624.8556.
The target in assay [2] is ShhN^1-198-HA (mouse) (UniProt Q62226). Described as above.
ShhN^1-198-HA (mouse), sequence (Q62226 25-198): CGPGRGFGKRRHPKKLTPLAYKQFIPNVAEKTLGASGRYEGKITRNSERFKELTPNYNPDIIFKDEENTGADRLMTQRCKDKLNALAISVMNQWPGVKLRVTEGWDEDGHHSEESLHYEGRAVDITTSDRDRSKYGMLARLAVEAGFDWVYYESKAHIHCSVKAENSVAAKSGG

B1: CLINT1 (protein, human (HEK293T cells), UniProt Q14677 1-625, looked up)
single chain: MLNMWKVRELVDKATNVVMNYSEIESKVREATNDDPWGPSGQLMGEIAKATFMYEQFPELMNMLWSRMLKDNKKNWRRVYKSLLLLAYLIRNGSERVVTSAREHIYDLRSLENYHFVDEHGKDQGINIRQKVKELVEFAQDDDRLREERKKAKKNKDKYVGVSSDSVGGFRYSERYDPEPKSKWDEEWDKNKSAFPFSDKLGELSDKIGSTIDDTISKFRRKDREDSPERCSDSDEEKKARRGRSPKGEFKDEEETVTTKHIHITQATETTTTRHKRTANPSKTIDLGAAAHYTGDKASPDQNASTHTPQSSVKTSVPSSKSSGDLVDLFDGTSQSTGGSADLFGGFADFGSAAASGSFPSQVTATSGNGDFGDWSAFNQAPSGPVASSGEFFGSASQPAVELVSGSQSALGPPPAASNSSDLFDLMGSSQATMTSSQSMNFSMMSTNTVGLGLPMSRSQNTDMVQKSVSKTLPSTWSDPSVNISLDNLLPGMQPSKPQQPSLNTMIQQQNMQQPMNVMTQSFGAVNLSSPSNMLPVRPQTNALIGGPMPMSMPNVMTGTMGMAPLGNTPMMNQSMMGMNMNIGMSAAGMGLTGTMGMGMPNIAMTSGTVQPKQDAFANFANFSK
Turning to B1, in the assay with ShhN^1-198-HA (mouse) [1], the Abundance Ratio ShhN:IGF2 turned out to be 3.5. The molecule also yielded an abundance in The IGF2 Group with IGF2-HA (human) of 78500. The abundance in The ShhN Group with ShhN^1-198-HA (mouse) [2] came out at 275000.
